Measurements published in the DeepSol protein solubility set.

Test: soluble on expression in E. coli; label from the status in PepcDB or PDB records
For “MSNRNLRSSTNSDLAEGQHQTPSSDSSGHGEDQPQASPGPNKKSHTPKKNISKGAVLHEKPMTVMVLTATEPFNYKEGKENMFHATVATESQYYRVKVFNMDLKEKFTENKFITISKYFNSSGILEINETATVSEAAPNQMFEVPKNIIRSAKETLKISKIKELDSGTLIYGVFAVEKKKVNDKSITFKIKDNEDNIKVVWDKEQHNINYEKGDKLQLFSFHLRKGNGKPILHSGNHSFIKGEKLLKESFEGDGYHKGPKQVVALKATKLFTYDSIKSKKMFHATVATDTEFFRVMVFEENLEKKFIPGNTIALSDYFGMYGSLAIHEYSSVSEVKSQNKEDSSSSDERPIEHLKICDLHLQTKERLVDGEFKVYRKSSGNNCICYGIWDDTGAMKVVVSGQLTSVNCEIGNTIRLVCFELTSNADEWFLRATRYSYMEVIMPEK”, the “soluble on expression in E. coli” value was “soluble”. For “MGSDKIHHHHHHAGELRERVYLQTDKQFYLSGELVWMKFIATDLDQRLSDVSKVGYVELLDSASAVVQARLVLEKGVGDGCLQLPSTLPTGNYRLVAYTRYMRNEGEEVFFEKPLAVVNTFVTNETLLTDTLLPAYSFTRREDPVSVSPDRMTYDTRSGGEIRINGLPPDLQTLSVSIAGIDLYKPSARSGIVDWKQSMPTTGSSPADRKFLAEYEGPILTGKVIDLSTGEPSSKEAVRPLLGFSGGEIRLFGGQLGPAGEVTFFTRHISGTHEIVTVALSPSSSRYRVDIESPYATHPEKELPALRLNPAWQDELVKRSVGLQVLHAYRSDSLVREKAEKPWFQWQPDWSYLLDEYTRFTTMEEVVIEFIPGLRFRKMDGVRRLAVLTEERIGYTIGNSLVLLDGIPITDHEIIFKYDPLKIRKIDVYKGKYVFGGQIFDGIASFSSYEHNYPGLVVDNSTQFFDYEGTQAQRIFYMPAYRTEAEKRSPVPDFRHTLLWRPDIRTNGESSISIPFTTSDLTGDFTITIEGLTQTGEALYATEQFQVK”, the “soluble on expression in E. coli” value was “not soluble”. In the case of “MTIAQEPTALNFECETGNYHTFCPISCVAWLYQKIEDSFFLVIGTKTCGYFLQNAMGVMIFAEPRYAMAELEEGDISAQLNDYAELKRLCEQIKRDRNPSVIVWIGTCTTEIIKMDLEGLAPKLEGEIGIPIVVARANGLDYAFTQGEDTVLAAMAHRCPDKAPVAEAEKNLEHHHHHH”, the “soluble on expression in E. coli” value is reported as “soluble”. With “MAHHHHHHMYFVIEEWKNVIIKPSQLGPRYQQYIEDMLRNSVEGQCSVKYGYVICVIRIIHSEPGRVQDGTGMIVVKVKYQAIVFKPFKDEVLDAIVTDVNKLGFFAQAGPLKIFISRTAIPKYFEYSEDLHYPCFSSGDYNIKPQTTVRIKLQGIRYDLSNMFAIATINNEYLGCIESNILQVM” the “soluble on expression in E. coli” value was “not soluble”. In the case of “MSLDTYTTSEVADLIGVHPNTVRLYEELNLIPKPKRNTNGYRIFNDFHIEQFRFARTALKIEVVQRGLRKDALEIVRTSANRDFDKAISLVNQYLQQLEIEKSNAEEALTIVAQILNGNTPETNKLFLTRKETAEHLNEGHHHHHH”, the “soluble on expression in E. coli” value is reported as “not soluble”. For “MGSDKIHHHHHHMELGIIYSGEFGKRFVSNLAYPYLCPTFGACGINGCDYCKRYDFSSSIVYAKELAEPQEIGLYVEEPESYLEPFECDIAVAINVHPDILVSLPEIGEFKALIVPACNQNWCLPGLRKQLAEKCGELGIEFASPKPFCSLTGNSGWISRFIDEFKIGRPEFRVERGGDAIKKVEVIKSDPCGSAYFVAKRMTGYIIESKEDFWKEIHQHQCAYPCMASMDRDVELKEAPFHLAGYIMVYQFSTAAGVEAEEFVPEHFREIVCRAR”, the “soluble on expression in E. coli” value was “not soluble”. In the case of “MKKGVHLVFILVASLLSSFSVMAQSLQASVNKTEVAKNEVINLRIMADSEVASDAIDFSVLEKDFFLGQPRYGRSSNNINGRKYQRTEWSISIAPMKEGIITIPSFSADGMKTEPIQLKVTANKSAPDLDDLFSFNMSVDNHTLYPQQSANLRMQLIIKADTRRLDNPQVV”, the “soluble on expression in E. coli” value is reported as “not soluble”. In the case of “SSVDPMTYEAQFFGFTPQTCMLRIYIAFQDYLFEVMQAVEQVILKKLDGIPDCDISPVQIRKCTEKFLCFMKGHFDNLFSKMEQLFLQLILRIPSNILLPEDKCKETPYSEEDFQHLQKEIEQLQEKYKTELCTKQALLAELEEQKIVQAKLKQTLTFFDELHNVGRDHGTSDFRESLVSLVQNSRKLQNIRDNVEKESKRLKIS”, the “soluble on expression in E. coli” value is reported as “soluble”. With “MKEVKRPVVSVVVPVYNTEPFLAECLHSLEKQTLTDIEIILVNDGSTDNSGRLLREYAGKDARFVYVEQENQGLSAARNTGMEHASGHYLAFLDSDDWLAENALQVLCAIAAKTRTDIVSGNTLAVHADGQVQSWERRGRELFATGTVVSGSTYFSRVMDCRCYVPMVYNYLYRRDFIEQNGFRFEPGLVHEDELWTPQVLTTAQKITVADIDFYYYRQREGSIMTATAAGRRIASIQLIIEKLLEYSRKHLFEKKYREAKEALYVRLLQIYSTACTLHPDGTYTTLYDRAGEMLRVCEELRRQESLGRWYSEEILNRMKLYYDRLQTMEG” the “soluble on expression in E. coli” value was “not soluble”. With “MGSDKIHHHHHHAQNGNVLGQVIRLPKSKGNIYQLLGLVTERSGYLFIYDSKIIDNEQTTSIKGGDYTIQEAIYAITGNKNLAIRAIENHLLLYLPESPSAPKSASVTPDSIQTYFSIEGSLQDQYTHEPIAFGSVGIGEAAIGTITNQNGEFRLKLPDSLRLSKVRFSHIGYLPQEIDSRELIDKHTVLSLEPKVISIQEVIVRLTNPKRLLQEMLDKRRSNYSQHPIYLTTFYREGVERKKGLVGLTEAVFKVYKASYHSNALADQVKLLKMRRISNEQEKDTLITKMKSGIYSCLVLDLMKQLPEFLDPSPDSPYTYAHTDITVVDDRLANVISFEQRKSINEPLYRGQIYIDMENNALLRVDFEVNPQYIEQAAGMFVERKSRNLRITPQKVAYTVSYKQWNGTYYINHIRGDLHFKIKKRRQLFNTNILHTWFEMVTCKIDTANVNRFSRIESLPTRTVFSDTHFNYDEGFWGDFNVILPEDKLNEAISRITSKIEETNY” the “soluble on expression in E. coli” value was “not soluble”. In the case of “MHHHHHHMGIVTGPIIDHSKENDVMNEAEQNAETVRRGYAAFNSGDMKTLTELFDENASWHTPGRSRIAGDHKGREAIFAQFGRYGGETGGTFKAVLLHVLKSDDGRVIGIHRNTAERGGKRLDVGCCIVFEFKNGRVIDGREHFYDLYAWDEFWR”, the “soluble on expression in E. coli” value is reported as “soluble”. For “MGSDKIHHHHHHMNESERKIVEEFQKETGINFKNEELLFRALCHSSYANEQNQAGRKDVESNEKLEFLGDAVLELFVCEILYKKYPEAEVGDLARVKSAAASEEVLAMVSRKMNLGKFLFLGKGEEKTGGRDRDSILADAFEALLAAIYLDQGYEKIKELFEQEFEFYIEKIMKGEMLFDYKTALQEIVQSEHKVPPEYILVRTEKNDGDRIFVVEVRVNGKTIATGKGRTKKEAEKEAARIAYEKLLKERS”, the “soluble on expression in E. coli” value was “soluble”. With “KQPKKSQPDLFYATDGTPILVGKNNLQNDQLTLRTAKKTDYWLHAKDIPGSHVIIRDAHPSEETLTEAALLAAYFSKYRLSSQVPVDYVQVKHVHK” the “soluble on expression in E. coli” value was “not soluble”. With “MDLDLIQDLPILNFPPAIKIRANTNRDDDGGGCTTPTSSDHKIPPTTATTPPPPPQKPRPPSTPSSLGIRSCKRKLMTSLSKYEIIVNKDEIERFFSSVYNQTMASSTTTAITVAKRRRSFRSCSRR” the “soluble on expression in E. coli” value was “not soluble”. In the case of “MGSDKIHHHHHHMATLETLDLSAGFAADLVQATEADAVTGYRRFHLGAFAFQRDEYFVKISWPAKGSTRTHAIPADAFLRAMMRDVAWGFFYGWVNFDHVFGTRNHYGKVDVYAGTFNGILKEAGVDYTETFETPTIMATFKAMLHDWTNEGFDPFAAPEETGTAFGRKHGENGAAIERTRIATRRMPGLEGDSPLRDELPVNRAFRDVGQDEPEVHVKPGFEGELHAFNLFKYLSRSDVTWNPSVTSVCGRSLFCPTTEEFILPVFHGNDRVEWFLQLSDEIVWDIGDKNTGAPRARITMRAGDICAMPADIRHQGYSTKRSMLLVWENATPDLPQRYESGELAPYPIAF”, the “soluble on expression in E. coli” value is reported as “not soluble”. For “MSLATALVLGYSAFDLGLFSDKDPRLKLIKKAIRKDLEAMAADGVSWLVFTGSLGFEYWVLEVAQEMKTEYGFQLATIFAFETHGENWNEGNQMKLSRFKQVDFVKYAYPRYEHKGQLRDYQQFLLENTTSSYLFYDEENETKLAYFYQKMKNQEDYFIKRLTFDQLNELAENFSENEGHHHHHH”, the “soluble on expression in E. coli” value was “soluble”. With “ANRHPAKVVSTRYFPQARVMELVLAPSNNGQGKPWQGHKAGQFAYVRFGNEDPHPFTIVSGEHEPEVRFLIKELGDFTTDLYHRVKIGEEVMVEGPYGRLA” the “soluble on expression in E. coli” value was “not soluble”. In the case of “MGTRSKRSERCARCRLHIHRCVCPAMPRYSLATRVVLVMHHREYPKTTATGPLALEILPNSELRIHGEPGRSLNLSDLDTPARRILLLYPGDDVPVLDRELLERDGRPVTLVVPDGTWRQASRMGRRLPGLARAEMVRLPPGPPTEWGVRRENHPQGLATFEAIARALGIIESPDVQSGMEHLFRLMVRQTLGARGCAVDRDLEHHHHHH”, the “soluble on expression in E. coli” value is reported as “soluble”. In the case of “MKLTVKRSVFLQELQTVQRAISSKTTIPILTGVKIVLSEDGLSLTGSNADISIESFLSKDDEKAQMTIERTGSIVLQSRFFGEIIRKLPEDMFTMEVLDNNQVAITSGKADFTVNGLDADNYPHLPVIDTQNQMKLPVHLLTKIISETGFAVSMHESRPILTGVHFILENQKLLAVATDSHRLSQRVIPTEQAVEDFNIVIPGKSLTELSRSLTNEEEMVEISIMENQVLFKTETMYFYSRLLEGNYPDTNRLIPTSHNTQIEFYVPELLSAIERASLLSHEGRNNIVRLSISPDSVVLYGNSPEIGKVEEALNYENVSGEALDISFNPDYMKDALRAFGDMNITVKFLSPIRPFTLEPTETELDFIQLITPVRTN”, the “soluble on expression in E. coli” value is reported as “not soluble”. For “MKQTQRHDAIIELVKKQGYVSTEELVEHFSVSPQTIRRDLNDLAEQNMILRHHGGAALPSSSVNTPWHDRKATQTEEKERIARKVAAQIPNGSTLFIDIGTTPEAVAHALLGHSNLRIVTNNLNVANTLMAKEDFRIILAGGELRSRDGGIIGEATQDFIAQFRLDFGILGISGIDSDGSLLEFDYHEVRTKRAIIENSRHVMLVVDHSKFGRNAMVNMGSISMVDAVYTDTLPPPGVMQVLTENHIQLELCLEHHHHHH”, the “soluble on expression in E. coli” value was “soluble”. For “MGSDKIHHHHHHMPPLSIPADQYLRLSDKSQVRCYRSHFSDRMEMLAPPKNVAAYLDHHQGWFQRCAAPMEVKALDDQSYLLTLGRFGNFGFEVEPCIGLKLLPQQQGLYQIINVDLTHQDLPLCDHYDVDFKAGLKLEPSETEASNTVQQTTIVNWDLDLSVWIQLPKVITLLPDGLVQTSGDQLLRQVVRQISRRLTWKVQEDFHATHGLTCPPRRHAAF”, the “soluble on expression in E. coli” value was “not soluble”. With “GPGSMADAYRERALPTLSVLERLRCLRREHVPYASHYCEENAYKLVEALYRDFSLPDHAVFAVFISNDCKSTPVWKQRLGNGRCPLMWDYHVITLVNVGAGDEGGMWAFDQDTTLPFPCEGLRYIEESFHPEMQLDDKYRQRFRVVPGRDYLEYFSSDRSHMKDFDAAQPPWPLIRGCRAPSDMRLGLYVDVHQSSSGEDVKKEQGCGKILSIAELISFVSP” the “soluble on expression in E. coli” value was “soluble”. With “MGSSHHHHHHSSGLVPRGSHMHMQVTLQVTPPCTQERHYEHLGRCCSRCEPGKYLSSKCTPTSDSVCLPCGPDEYLDTWNEEDKCLLHKVCDAGKALVAVDPGNHTAPRRCACTAGYHWNSDCECCRRNTECAPGFGAQHPLQLNKDTVCTPCLLGFFSDVFSSTDKCKPWTNCTLLGKLEAHQGTTESDVVCSSSMTLRRPPKEAQALEHHHHHH” the “soluble on expression in E. coli” value was “soluble”.
